Test results reported in patent US20250262210A1 (TRUSTEES OF COLUMBIA UNIVERSITY IN THE CITY OF NEW YORK, published 2025).

Key:
Test in all cases: IP/MS, LZTR1 wild type-FLAG, U87
TRIM16 = TRIM16 (human, UniProt O95361 1-564, limits assumed)
Summary of the method: (§1)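 Read-out: spectral counts from LC-MS/MS (Orbitrap Fusion) after MaxQuant identification. Variable modifications were Met oxidation, protein N-terminal acetylation and N/Q deamidation.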

RPAP1 = molecular target: T1, RPAP1 (human, UniProt Q9BWH6 1-1393, limits assumed)
T1 sequence (looked up): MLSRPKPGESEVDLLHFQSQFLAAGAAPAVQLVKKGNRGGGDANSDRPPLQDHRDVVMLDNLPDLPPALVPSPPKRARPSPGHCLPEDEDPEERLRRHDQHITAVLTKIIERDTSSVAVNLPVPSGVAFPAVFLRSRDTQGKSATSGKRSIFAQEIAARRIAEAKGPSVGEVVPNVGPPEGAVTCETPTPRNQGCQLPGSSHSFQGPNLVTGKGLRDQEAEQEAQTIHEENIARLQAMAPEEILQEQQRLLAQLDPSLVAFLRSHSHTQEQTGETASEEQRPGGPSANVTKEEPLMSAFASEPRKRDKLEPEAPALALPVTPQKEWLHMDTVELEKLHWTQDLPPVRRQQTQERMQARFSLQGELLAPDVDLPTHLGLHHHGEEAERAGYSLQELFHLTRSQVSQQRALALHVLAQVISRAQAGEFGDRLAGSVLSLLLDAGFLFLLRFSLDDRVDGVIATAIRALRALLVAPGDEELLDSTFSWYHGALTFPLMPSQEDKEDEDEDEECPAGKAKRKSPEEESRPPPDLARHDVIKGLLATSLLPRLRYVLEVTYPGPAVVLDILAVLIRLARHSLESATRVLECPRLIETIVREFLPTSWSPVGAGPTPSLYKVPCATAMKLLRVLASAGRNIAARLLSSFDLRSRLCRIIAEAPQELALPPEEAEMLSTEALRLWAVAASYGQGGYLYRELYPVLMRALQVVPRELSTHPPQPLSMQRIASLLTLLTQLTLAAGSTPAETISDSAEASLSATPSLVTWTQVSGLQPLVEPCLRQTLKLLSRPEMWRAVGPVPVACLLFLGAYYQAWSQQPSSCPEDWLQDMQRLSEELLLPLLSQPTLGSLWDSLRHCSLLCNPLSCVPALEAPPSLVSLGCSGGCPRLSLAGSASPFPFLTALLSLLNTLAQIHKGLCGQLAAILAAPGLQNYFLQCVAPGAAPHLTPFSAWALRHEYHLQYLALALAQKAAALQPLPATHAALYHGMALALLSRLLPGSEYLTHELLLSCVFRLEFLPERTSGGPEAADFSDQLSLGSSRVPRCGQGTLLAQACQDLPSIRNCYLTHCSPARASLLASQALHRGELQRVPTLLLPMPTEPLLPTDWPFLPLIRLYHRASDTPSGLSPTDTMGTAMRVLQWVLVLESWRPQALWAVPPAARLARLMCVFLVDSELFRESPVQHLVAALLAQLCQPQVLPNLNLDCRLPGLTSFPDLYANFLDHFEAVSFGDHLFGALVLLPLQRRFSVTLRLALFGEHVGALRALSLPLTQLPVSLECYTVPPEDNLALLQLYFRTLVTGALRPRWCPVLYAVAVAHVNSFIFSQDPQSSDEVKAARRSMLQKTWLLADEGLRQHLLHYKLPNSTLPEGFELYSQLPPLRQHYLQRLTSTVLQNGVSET
Summary of the method: as §1

ARHGAP31 = ARHGAP31 (human, UniProt Q2M1Z3 1-1444)
Summary of the method: as §1

URB1 = URB1 (human, UniProt O60287 1-2271)
Summary of the method: as §1

SKIV2L = SKIV2L (human, UniProt Q15477 1-1246)
Summary of the method: as §1

PTPN23 = PTPN23 (human, UniProt Q9H3S7 1-1636)
Summary of the method: as §1

HERC2 = HERC2 (human, UniProt O95714 1-4834)
Summary of the method: as §1

Measured: binding result

URB1, sequence (O60287 whole entry): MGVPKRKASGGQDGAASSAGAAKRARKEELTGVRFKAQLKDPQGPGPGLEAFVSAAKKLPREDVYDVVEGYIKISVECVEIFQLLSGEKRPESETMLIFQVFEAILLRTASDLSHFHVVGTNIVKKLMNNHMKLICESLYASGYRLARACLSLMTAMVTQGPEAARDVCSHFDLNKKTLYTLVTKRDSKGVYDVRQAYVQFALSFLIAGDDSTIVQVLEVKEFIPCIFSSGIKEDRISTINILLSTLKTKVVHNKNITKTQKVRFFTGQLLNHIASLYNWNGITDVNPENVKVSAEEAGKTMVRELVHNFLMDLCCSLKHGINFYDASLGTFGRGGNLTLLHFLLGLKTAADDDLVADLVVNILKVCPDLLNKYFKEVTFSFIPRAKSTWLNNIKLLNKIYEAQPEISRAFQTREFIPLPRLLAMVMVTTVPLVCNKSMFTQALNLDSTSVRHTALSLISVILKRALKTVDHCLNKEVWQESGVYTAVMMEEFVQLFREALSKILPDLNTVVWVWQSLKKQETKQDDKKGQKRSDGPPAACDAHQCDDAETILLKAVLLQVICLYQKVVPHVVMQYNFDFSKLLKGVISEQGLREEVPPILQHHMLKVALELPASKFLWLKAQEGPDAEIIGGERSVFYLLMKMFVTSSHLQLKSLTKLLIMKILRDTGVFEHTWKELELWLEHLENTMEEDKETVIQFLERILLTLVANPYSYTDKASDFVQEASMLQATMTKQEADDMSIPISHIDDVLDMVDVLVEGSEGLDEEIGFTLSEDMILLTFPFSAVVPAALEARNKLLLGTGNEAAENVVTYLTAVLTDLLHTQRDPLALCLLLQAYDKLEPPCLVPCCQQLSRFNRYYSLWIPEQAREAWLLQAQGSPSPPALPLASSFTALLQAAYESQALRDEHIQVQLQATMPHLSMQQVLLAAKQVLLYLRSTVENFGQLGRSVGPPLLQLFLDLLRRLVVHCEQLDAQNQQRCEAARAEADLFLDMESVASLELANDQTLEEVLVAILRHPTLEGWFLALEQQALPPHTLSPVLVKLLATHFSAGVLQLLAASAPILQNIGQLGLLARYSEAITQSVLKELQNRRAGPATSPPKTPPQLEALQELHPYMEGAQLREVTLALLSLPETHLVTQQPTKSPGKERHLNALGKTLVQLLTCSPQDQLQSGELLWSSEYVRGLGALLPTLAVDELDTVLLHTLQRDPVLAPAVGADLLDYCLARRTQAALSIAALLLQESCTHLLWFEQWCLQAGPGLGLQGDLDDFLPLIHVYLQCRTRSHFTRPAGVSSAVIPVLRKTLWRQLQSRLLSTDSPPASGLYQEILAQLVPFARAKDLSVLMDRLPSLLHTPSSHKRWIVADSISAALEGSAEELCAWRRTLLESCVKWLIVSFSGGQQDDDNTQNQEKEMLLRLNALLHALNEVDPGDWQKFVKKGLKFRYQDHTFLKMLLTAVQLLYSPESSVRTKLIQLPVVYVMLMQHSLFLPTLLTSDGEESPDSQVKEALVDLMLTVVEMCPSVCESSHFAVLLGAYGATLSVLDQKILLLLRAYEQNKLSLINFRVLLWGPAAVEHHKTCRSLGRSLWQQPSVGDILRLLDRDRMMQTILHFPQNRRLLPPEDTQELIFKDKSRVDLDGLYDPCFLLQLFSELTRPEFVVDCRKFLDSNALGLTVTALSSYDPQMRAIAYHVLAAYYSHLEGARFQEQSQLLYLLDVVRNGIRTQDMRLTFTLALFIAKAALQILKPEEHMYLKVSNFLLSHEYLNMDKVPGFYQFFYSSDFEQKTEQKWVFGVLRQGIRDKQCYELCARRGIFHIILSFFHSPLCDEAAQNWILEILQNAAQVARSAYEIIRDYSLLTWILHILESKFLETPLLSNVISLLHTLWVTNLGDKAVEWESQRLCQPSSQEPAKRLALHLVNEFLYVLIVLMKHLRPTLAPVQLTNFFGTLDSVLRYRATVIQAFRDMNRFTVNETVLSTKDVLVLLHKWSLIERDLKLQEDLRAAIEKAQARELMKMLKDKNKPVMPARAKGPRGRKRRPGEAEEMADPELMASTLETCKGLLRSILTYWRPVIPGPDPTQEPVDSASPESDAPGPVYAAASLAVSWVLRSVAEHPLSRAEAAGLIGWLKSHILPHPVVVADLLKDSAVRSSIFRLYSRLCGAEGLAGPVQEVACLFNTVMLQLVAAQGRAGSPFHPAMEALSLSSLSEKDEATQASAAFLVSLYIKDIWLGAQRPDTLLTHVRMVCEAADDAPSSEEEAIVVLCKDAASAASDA
SKIV2L, sequence (Q15477 whole entry): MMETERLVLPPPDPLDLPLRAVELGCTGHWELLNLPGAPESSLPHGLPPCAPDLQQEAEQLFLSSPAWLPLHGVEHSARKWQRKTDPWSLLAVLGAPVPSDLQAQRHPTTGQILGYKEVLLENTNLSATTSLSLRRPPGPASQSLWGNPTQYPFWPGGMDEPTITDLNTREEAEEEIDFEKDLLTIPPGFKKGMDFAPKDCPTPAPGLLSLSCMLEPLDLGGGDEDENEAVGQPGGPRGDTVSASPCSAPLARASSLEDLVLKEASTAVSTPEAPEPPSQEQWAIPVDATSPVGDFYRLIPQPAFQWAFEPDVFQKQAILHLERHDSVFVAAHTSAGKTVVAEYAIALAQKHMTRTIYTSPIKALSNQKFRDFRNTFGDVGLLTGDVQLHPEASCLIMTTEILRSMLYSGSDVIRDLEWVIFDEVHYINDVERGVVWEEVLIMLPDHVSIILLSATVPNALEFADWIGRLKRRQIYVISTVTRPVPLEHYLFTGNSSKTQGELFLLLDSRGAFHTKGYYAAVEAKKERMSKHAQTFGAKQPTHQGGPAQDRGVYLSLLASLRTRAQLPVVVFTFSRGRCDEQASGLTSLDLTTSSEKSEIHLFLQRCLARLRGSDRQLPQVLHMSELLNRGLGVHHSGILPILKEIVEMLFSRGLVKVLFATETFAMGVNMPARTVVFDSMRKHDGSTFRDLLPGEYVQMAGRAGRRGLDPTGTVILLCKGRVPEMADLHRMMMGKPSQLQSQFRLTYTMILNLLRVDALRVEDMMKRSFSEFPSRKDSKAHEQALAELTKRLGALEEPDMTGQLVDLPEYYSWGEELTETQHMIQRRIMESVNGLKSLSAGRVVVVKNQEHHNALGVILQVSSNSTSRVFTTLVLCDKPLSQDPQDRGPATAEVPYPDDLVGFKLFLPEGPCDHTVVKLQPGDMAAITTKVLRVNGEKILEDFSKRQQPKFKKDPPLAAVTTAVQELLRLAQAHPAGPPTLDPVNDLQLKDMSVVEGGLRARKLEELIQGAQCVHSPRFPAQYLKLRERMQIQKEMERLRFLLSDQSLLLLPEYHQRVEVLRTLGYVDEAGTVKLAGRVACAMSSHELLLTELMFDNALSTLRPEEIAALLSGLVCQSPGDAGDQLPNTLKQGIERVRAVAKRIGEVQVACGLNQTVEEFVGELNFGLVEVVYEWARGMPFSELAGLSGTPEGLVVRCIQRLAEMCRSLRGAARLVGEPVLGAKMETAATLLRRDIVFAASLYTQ
PTPN23, sequence (Q9H3S7 whole entry): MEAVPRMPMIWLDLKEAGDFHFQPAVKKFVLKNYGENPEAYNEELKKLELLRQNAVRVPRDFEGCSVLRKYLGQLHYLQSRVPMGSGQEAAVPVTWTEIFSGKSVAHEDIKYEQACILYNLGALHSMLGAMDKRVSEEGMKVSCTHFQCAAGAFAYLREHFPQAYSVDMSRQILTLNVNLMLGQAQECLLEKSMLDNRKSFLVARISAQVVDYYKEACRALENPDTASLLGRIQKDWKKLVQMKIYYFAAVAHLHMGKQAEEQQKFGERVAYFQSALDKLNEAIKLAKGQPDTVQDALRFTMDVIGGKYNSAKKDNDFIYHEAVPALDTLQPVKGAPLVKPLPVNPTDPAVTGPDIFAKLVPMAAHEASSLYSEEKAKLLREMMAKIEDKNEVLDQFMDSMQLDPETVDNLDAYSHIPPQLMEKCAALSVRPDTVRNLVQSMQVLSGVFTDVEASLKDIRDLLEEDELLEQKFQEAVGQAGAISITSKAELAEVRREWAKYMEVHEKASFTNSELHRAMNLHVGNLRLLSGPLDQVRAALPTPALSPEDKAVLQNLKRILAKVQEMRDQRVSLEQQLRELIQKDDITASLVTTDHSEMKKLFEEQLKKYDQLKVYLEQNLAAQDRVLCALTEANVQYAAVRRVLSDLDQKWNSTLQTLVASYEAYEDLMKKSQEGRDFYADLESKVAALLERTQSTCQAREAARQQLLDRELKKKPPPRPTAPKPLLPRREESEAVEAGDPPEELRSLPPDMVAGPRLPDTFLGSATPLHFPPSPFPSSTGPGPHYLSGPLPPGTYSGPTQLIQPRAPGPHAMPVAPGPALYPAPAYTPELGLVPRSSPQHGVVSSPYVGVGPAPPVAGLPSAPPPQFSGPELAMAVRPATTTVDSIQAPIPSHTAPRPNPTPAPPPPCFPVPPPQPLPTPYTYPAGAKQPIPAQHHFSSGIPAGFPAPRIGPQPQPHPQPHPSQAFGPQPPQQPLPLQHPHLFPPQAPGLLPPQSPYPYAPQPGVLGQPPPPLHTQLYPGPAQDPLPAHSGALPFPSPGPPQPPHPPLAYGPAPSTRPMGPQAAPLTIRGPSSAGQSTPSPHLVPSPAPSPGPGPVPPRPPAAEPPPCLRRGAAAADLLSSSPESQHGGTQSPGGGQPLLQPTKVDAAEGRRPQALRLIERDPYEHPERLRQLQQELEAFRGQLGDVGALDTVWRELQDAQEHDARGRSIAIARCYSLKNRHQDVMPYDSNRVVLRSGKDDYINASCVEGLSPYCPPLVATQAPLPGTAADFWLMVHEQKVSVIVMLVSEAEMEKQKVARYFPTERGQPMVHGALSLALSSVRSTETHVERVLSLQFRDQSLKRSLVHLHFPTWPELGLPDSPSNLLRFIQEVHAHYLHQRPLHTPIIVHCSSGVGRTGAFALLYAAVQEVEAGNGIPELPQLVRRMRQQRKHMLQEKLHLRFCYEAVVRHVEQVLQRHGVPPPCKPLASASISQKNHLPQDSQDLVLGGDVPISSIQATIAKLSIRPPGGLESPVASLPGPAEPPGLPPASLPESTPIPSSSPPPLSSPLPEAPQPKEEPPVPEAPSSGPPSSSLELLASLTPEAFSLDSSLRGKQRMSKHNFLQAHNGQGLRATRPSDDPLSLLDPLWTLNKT

B1: LZTR1-FLAG (other, human, UniProt Q8N653 1-840, looked up)
chain: MAGPGSTGGQIGAAALAGGARSKVAPSVDFDHSCSDSVEYLTLNFGPFETVHRWRRLPPCDEFVGARRSKHTVVAYKDAIYVFGGDNGKTMLNDLLRFDVKDCSWCRAFTTGTPPAPRYHHSAVVYGSSMFVFGGYTGDIYSNSNLKNKNDLFEYKFATGQWTEWKIEGRLPVARSAHGATVYSDKLWIFAGYDGNARLNDMWTIGLQDRELTCWEEVAQSGEIPPSCCNFPVAVCRDKMFVFSGQSGAKITNNLFQFEFKDKTWTRIPTEHLLRGSPPPPQRRYGHTMVAFDRHLYVFGGAADNTLPNELHCYDVDFQTWEVVQPSSDSEVGGAEVPERACASEEVPTLTYEERVGFKKSRDVFGLDFGTTSAKQPTQPASELPSGRLFHAAAVISDAMYIFGGTVDNNIRSGEMYRFQFSCYPKCTLHEDYGRLWESRQFCDVEFVLGEKEECVQGHVAIVTARSRWLRRKITQARERLAQKLEQEAAPVPREAPGVAAGGARPPLLHVAIREAEARPFEVLMQFLYTDKIKYPRKGHVEDVLLIMDVYKLALSFQLCRLEQLCRQYIEASVDLQNVLVVCESAARLQLSQLKEHCLNFVVKESHFNQVIMMKEFERLSSPLIVEIVRRKQQPPPRTPLDQPVDIGTSLIQDMKAYLEGAGAEFCDITLLLDGHPRPAHKAILAARSSYFEAMFRSFMPEDGQVNISIGEMVPSRQAFESMLRYIYYGEVNMPPEDSLYLFAAPYYYGFYNNRLQAYCKQNLEMNVTVQNVLQILEAADKTQALDMKRHCLHIIVHQFTKVSKLPTLRSLSQQLLLDIIDSLASHISDKQCAELGADI
notes: Expressed in HEK 293T, HeLa or U87 cells; used as cell lysate; also called LZTR1 wild type-FLAG; LZTR1 WT; not shown: FLAG tag at the C-terminus
binds: all assays above
